Measurements from PMC11969024 (2025).

B1: peptide HD2 (from tick evasin EVA4) / CCL22 (biotinylated, synthetic) (parent complex)
chain 1: EEDDYTAYAPLTCYFT
chain 2: GPYGANMEDSVCCRDYVRYRLPLRVVKHFYWTSDSCPRPGVVLLTFRDKEICADPRVPWVKMILNKLSQ

Variants of: B1
In the case of chain 1 E1H, the enrichment is reported as -2.89 log2 (difference from the parental peptide).
chain 1 Y8C was tested, and the enrichment was -9.68 log2 (difference from the parental peptide).
chain 1 T16G was tested, and the enrichment was 1.83 log2 (difference from the parental peptide).
In the case of chain 1 T16V, the enrichment is reported as -0.0944 log2 (difference from the parental peptide).
chain 1 L11M was tested, and the enrichment was 2.52 log2 (difference from the parental peptide).
In the case of chain 1 D3F, the enrichment is reported as -5 log2 (difference from the parental peptide).
For chain 1 T16A, the enrichment was 1.77 log2 (difference from the parental peptide).
For chain 1 C13L, the enrichment was -6.36 log2 (difference from the parental peptide).
For chain 1 E2D, the enrichment was 1.62 log2 (difference from the parental peptide).
With chain 1 T12V the enrichment was -0.299 log2 (difference from the parental peptide).
With chain 1 A9T the enrichment was -3.93 log2 (difference from the parental peptide).
In the case of chain 1 F15A, the enrichment is reported as 1.19 log2 (difference from the parental peptide).
With chain 1 D4V the enrichment was -8.27 log2 (difference from the parental peptide).
For chain 1 T6N, the enrichment was 1.76 log2 (difference from the parental peptide).
For chain 1 A9H, the enrichment was -6.63 log2 (difference from the parental peptide).
In the case of chain 1 Y5F, the enrichment is reported as -1.41 log2 (difference from the parental peptide).
chain 1 D4E was tested, and the enrichment was -1.08 log2 (difference from the parental peptide).
In the case of chain 1 Y14E, the enrichment is reported as -6.44 log2 (difference from the parental peptide).
With chain 1 Y14I the enrichment was -0.881 log2 (difference from the parental peptide).
In the case of chain 1 Y5V, the enrichment is reported as -5.81 log2 (difference from the parental peptide).
For chain 1 T16M, the enrichment was 0.731 log2 (difference from the parental peptide).
For chain 1 C13W, the enrichment was -3.31 log2 (difference from the parental peptide).
In the case of chain 1 A7L, the enrichment is reported as -0.735 log2 (difference from the parental peptide).
For chain 1 F15C, the enrichment was -4.84 log2 (difference from the parental peptide).
For chain 1 A7Y, the enrichment was -1.54 log2 (difference from the parental peptide).
With chain 1 Y5C the enrichment was -5.08 log2 (difference from the parental peptide).
chain 1 D3Y was tested, and the enrichment was -3.98 log2 (difference from the parental peptide).
For chain 1 T12E, the enrichment was -7.95 log2 (difference from the parental peptide).
With chain 1 A9M the enrichment was -5.79 log2 (difference from the parental peptide).
For chain 1 Y5N, the enrichment was -6.71 log2 (difference from the parental peptide).
With chain 1 D3K the enrichment was -5.36 log2 (difference from the parental peptide).
For chain 1 P10L, the enrichment was -7.92 log2 (difference from the parental peptide).
With chain 1 E1N the enrichment was -1.54 log2 (difference from the parental peptide).
chain 1 F15P was tested, and the enrichment was -1.52 log2 (difference from the parental peptide).
In the case of chain 1 T16H, the enrichment is reported as 0.765 log2 (difference from the parental peptide).
chain 1 T6M was tested, and the enrichment was -1.14 log2 (difference from the parental peptide).
For chain 1 F15M, the enrichment was 0.54 log2 (difference from the parental peptide).
In the case of chain 1 T16Y, the enrichment is reported as -0.842 log2 (difference from the parental peptide).
chain 1 E1L was tested, and the enrichment was -1.9 log2 (difference from the parental peptide).
With chain 1 A7V the enrichment was -3.51 log2 (difference from the parental peptide).
chain 1 E1K was tested, and the enrichment was -4.48 log2 (difference from the parental peptide).
With chain 1 T16S the enrichment was 1.36 log2 (difference from the parental peptide).
For chain 1 E2M, the enrichment was -2.95 log2 (difference from the parental peptide).
In the case of chain 1 D3I, the enrichment is reported as -5.15 log2 (difference from the parental peptide).
With chain 1 Y5E the enrichment was -3.48 log2 (difference from the parental peptide).
For chain 1 Y8W, the enrichment was -2.54 log2 (difference from the parental peptide).
With chain 1 A7Q the enrichment was 2.25 log2 (difference from the parental peptide).
chain 1 T6E was tested, and the enrichment was 2.68 log2 (difference from the parental peptide).
In the case of chain 1 E1W, the enrichment is reported as -2.09 log2 (difference from the parental peptide).
In the case of chain 1 T16E, the enrichment is reported as 0.53 log2 (difference from the parental peptide).
In the case of chain 1 Y14Q, the enrichment is reported as -0.26 log2 (difference from the parental peptide).
chain 1 L11E was tested, and the enrichment was 0.55 log2 (difference from the parental peptide).
With chain 1 T12Q the enrichment was 0.207 log2 (difference from the parental peptide).
chain 1 E1P was tested, and the enrichment was -2.84 log2 (difference from the parental peptide).
chain 1 L11K was tested, and the enrichment was 0.195 log2 (difference from the parental peptide).
In the case of chain 1 A7D, the enrichment is reported as 1.26 log2 (difference from the parental peptide).
In the case of chain 1 T6D, the enrichment is reported as 3.79 log2 (difference from the parental peptide).
For chain 1 F15V, the enrichment was 0.452 log2 (difference from the parental peptide).
In the case of chain 1 A7M, the enrichment is reported as 1.59 log2 (difference from the parental peptide).
In the case of chain 1 P10F, the enrichment is reported as -9.41 log2 (difference from the parental peptide).
chain 1 Y5H was tested, and the enrichment was -5 log2 (difference from the parental peptide).
With chain 1 E1I the enrichment was -1.58 log2 (difference from the parental peptide).
With chain 1 A9L the enrichment was -6.75 log2 (difference from the parental peptide).
chain 1 E1R was tested, and the enrichment was -5.65 log2 (difference from the parental peptide).
chain 1 F15E was tested, and the enrichment was -3.12 log2 (difference from the parental peptide).
In the case of chain 1 E2W, the enrichment is reported as -1.93 log2 (difference from the parental peptide).
chain 1 F15S was tested, and the enrichment was -0.181 log2 (difference from the parental peptide).
In the case of chain 1 T6S, the enrichment is reported as 3.56 log2 (difference from the parental peptide).
With chain 1 Y14C the enrichment was -2.09 log2 (difference from the parental peptide).
In the case of chain 1 E2Q, the enrichment is reported as -3.9 log2 (difference from the parental peptide).
In the case of chain 1 Y8F, the enrichment is reported as -0.0331 log2 (difference from the parental peptide).
For chain 1 D4Y, the enrichment was -4.71 log2 (difference from the parental peptide).
For chain 1 D3E, the enrichment was 1.1 log2 (difference from the parental peptide).
In the case of chain 1 Y14H, the enrichment is reported as 2.15 log2 (difference from the parental peptide).
For chain 1 Y5T, the enrichment was -6.08 log2 (difference from the parental peptide).
